According to US20230340151A1 (Pfizer, published 2023):

Columns and labels:
Experiment in all cases: flow cytometry on cells displaying the construct
[1] = biological target: T1, CID1878 (human-chicken GUCY2c chimera) (human/chicken)
T1 chain: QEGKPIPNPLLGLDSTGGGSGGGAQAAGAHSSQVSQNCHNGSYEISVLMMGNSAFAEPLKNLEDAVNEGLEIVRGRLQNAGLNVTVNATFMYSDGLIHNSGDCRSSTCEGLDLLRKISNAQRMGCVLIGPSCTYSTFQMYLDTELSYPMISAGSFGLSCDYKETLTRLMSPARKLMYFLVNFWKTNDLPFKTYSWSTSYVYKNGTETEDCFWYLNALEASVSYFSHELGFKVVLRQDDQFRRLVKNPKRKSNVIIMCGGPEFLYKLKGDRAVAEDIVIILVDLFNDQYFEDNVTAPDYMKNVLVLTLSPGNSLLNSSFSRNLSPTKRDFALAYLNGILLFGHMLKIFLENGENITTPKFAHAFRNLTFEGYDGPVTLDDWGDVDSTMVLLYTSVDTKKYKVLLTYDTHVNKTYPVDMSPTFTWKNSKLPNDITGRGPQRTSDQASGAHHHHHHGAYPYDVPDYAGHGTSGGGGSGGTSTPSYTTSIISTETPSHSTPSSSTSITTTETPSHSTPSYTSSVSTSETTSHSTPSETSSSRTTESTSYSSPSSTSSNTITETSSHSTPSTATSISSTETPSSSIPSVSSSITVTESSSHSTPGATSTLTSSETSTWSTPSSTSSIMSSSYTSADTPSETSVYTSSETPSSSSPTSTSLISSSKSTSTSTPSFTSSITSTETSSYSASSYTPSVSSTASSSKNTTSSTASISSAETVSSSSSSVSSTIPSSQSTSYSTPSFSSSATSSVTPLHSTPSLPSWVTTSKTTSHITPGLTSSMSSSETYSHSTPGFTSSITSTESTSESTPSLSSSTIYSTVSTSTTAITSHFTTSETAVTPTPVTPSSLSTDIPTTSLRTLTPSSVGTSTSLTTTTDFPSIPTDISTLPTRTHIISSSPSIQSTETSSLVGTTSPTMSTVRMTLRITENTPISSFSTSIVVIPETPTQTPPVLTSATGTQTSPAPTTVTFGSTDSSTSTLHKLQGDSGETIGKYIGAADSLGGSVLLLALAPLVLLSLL

[2] = biological target: T2, CID1939 (reverse chimera, chicken GUCY2c with human residues) (chicken/human)
T2 chain: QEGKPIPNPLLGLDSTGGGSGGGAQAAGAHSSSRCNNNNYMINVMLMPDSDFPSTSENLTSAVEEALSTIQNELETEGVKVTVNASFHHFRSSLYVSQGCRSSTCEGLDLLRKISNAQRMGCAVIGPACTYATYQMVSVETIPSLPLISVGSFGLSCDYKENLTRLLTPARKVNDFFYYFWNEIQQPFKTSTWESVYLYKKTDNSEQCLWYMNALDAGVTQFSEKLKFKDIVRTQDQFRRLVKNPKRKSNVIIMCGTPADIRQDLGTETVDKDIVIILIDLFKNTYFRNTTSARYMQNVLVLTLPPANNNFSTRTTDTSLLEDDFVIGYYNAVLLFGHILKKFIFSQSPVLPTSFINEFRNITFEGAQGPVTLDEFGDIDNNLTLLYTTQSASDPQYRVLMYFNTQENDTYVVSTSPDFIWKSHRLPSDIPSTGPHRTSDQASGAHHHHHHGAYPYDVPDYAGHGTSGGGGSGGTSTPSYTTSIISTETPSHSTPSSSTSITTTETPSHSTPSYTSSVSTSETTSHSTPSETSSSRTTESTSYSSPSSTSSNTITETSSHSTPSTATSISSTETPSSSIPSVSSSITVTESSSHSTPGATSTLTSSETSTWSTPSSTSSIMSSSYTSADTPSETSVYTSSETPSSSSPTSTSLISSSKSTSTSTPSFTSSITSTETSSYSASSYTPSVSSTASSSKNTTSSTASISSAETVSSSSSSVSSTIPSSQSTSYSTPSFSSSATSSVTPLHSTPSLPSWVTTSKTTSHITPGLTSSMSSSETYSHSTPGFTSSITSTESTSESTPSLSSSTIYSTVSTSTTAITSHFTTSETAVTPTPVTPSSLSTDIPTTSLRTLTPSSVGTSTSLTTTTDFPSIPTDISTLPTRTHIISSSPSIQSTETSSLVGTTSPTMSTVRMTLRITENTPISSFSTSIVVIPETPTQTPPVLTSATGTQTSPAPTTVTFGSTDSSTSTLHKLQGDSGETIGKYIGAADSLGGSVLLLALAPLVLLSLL

[3] = biological target: CID1942 (human GUCY2c point mutant) (human)
[4] = biological target: CID1946 (human GUCY2c point mutant) (human)

Measured: binding result

B1: GUCY2C-1608 (bispecific antibody)
chain 1: DIQLTQSPSSLSASVGDRVTITCRASESVDYYGSSLLQWYQQKPGKAPKLLIYAASKLASGVPSRFSGSGSGTDFTLTISSLQPEDFATYYCQQTRKAYTFGQGTKLEIKGGGSGGGGEVQLVESGGGLVQPGGSLRLSCAASGFTFSDYYMTWVRQAPGKGLEWVAFIRNQARGYTSDHNPSVKGRFTISRDNAKNSLYLQMNSLRAEDTAVYYCARDRPSYYVLDYWGQGTTVTVSSGCPPCPAPEAAGAPSVFLFPPKPKDTLMISRTPEVTCVVVDVSHEDPEVKFNWYVDGVEVHNAKTKPREEQYNSTYRVVSVLTVLHQDWLNGKEYKCKVSNKALPAPIEKTISKAKGQPREPQVCTLPPSREEMTKNQVSLWCLVKGFYPSDIAVEWESNGQPENNYKTTPPVLDSDGSFFLYSKLTVDKSRWQQGNVFSCSVMHEALHNHYTQKSLSLSPG
chain 2: DIQMTQSPSSLSASVGDRVTITCTSSQSLFNVRSQKNYLAWYQQKPGKAPKLLIYWASTRESGVPSRFSGSGSGTDFTLTISSLQPEDFATYYCKQSYDLFTFGGGTKVEIKGGGGSGGGGEVQLVESGGGLVQPGGSLRLSCAASGFTFSSYWMHWVRQAPGKGLEWIGEIKPSNELTNVHEKFKDRFTISVDKAKNSAYLQMNSLRAEDTAVYYCTRTITTTEGYWFFDVWGQGTLVTVSSGCPPCPAPEAAGAPSVFLFPPKPKDTLMISRTPEVTCVVVDVSHEDPEVKFNWYVDGVEVHNAKTKPREEQYNSTYRVVSVLTVLHQDWLNGKEYKCKVSNKALPAPIEKTISKAKGQPREPQVYTLPPCREEMTKNQVSLSCAVKGFYPSDIAVEWESNGQPENNYKTTPPVLDSDGSFFLVSKLTVDKSRWQQGNVFSCSVMHEALHNHYTQKSLSLSPG
notes: also called GUCY2c CD3 bispecific
binds: all assays above
